Data as given in article PMC4881018, “Sec15 links bud site selection to polarised cell growth and exocytosis in Candida albicans” (Scientific Reports, 2016).

T1: GST-Sec15^550–892 (C. albicans, UniProt A0A1D8PM29 550-892)
T1 construct: The methods say only that similar strategies as for Sec15 and Rsr1 were used; source: E. coli, purified
T1 sequence (looked up): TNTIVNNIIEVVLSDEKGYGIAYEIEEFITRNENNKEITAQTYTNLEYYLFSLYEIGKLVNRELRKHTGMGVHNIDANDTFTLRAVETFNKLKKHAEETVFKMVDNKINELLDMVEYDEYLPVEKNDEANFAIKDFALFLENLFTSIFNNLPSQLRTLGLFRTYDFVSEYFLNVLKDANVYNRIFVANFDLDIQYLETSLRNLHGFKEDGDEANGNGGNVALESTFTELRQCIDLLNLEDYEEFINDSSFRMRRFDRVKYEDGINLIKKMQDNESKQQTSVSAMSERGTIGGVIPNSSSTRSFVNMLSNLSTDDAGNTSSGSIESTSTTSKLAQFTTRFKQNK

T2: His-Sec15^1–300 (C. albicans, UniProt A0A1D8PM29 1-300)
T2 construct: Sec15, exocyst component of Candida albicans, amino acids 1 to 300; Subcloned into pET21-a (Novagen); also called His6-Sec15^1–300; source: E. coli, purified
T2 sequence (looked up): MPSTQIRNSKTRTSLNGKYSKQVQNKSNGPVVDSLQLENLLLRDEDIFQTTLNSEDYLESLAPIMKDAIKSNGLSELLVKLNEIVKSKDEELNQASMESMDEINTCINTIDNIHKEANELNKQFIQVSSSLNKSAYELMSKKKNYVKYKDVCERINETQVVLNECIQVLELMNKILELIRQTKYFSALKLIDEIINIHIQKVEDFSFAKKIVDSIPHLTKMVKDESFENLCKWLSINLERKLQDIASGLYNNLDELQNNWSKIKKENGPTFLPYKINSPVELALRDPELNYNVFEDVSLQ

T3: His-Sec15^1–549 (C. albicans, UniProt A0A1D8PM29 1-549)
T3 construct: Sec15, exocyst component of Candida albicans, amino acids 1 to 549; Subcloned into pET21-a (Novagen); also called His6-Sec15^1–549; source: E. coli, purified
T3 sequence (looked up): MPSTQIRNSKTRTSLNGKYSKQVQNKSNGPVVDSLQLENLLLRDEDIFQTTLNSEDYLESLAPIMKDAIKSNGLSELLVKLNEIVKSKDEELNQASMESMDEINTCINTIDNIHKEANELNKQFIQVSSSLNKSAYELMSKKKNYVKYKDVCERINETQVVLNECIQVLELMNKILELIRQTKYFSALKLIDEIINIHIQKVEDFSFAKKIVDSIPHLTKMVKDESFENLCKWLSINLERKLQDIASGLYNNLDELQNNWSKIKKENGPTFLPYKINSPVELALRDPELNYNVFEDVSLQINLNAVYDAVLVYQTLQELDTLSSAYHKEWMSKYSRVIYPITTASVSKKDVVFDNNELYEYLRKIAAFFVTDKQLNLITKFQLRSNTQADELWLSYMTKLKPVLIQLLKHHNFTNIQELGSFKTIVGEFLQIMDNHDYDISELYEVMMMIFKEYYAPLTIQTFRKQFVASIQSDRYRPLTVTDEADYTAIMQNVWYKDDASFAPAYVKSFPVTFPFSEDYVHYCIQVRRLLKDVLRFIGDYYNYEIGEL


Key:
Assay in all cases: pull-down; GST fusion protein immobilised on glutathione-Sepharose beads (20 μl), incubated with 20 μg of purified His-tagged protein in 200 μl binding buffer (1× PBS, 1 mg/ml ovalbumin, 10 mM β-mercaptoethanol, 0.1% IGPAL-30), 1 hour at room temperature; four washes; anti-His blot
Conditions in all cases: both partners purified
[1] = target: T1, GST-Sec15^550–892
[2] = target: T2, His-Sec15^1–300
[3] = target: T3, His-Sec15^1–549

| Binder | binding result [1] | binding result [2] | binding result [3] |
| --- | --- | --- | --- |
| His-Bem1^1–300 (domain or fragment, C. albicans, UniProt A0A1D8PLB6 1-300, looked up, Bem1, polarity determinant of Candida albicans, N-terminal 300 amino acids; also called His6-Bem1^1–300; N-terminal 300 amino acids of Bem1; source: similar strategies as for the E. coli proteins) MIKTFRKSKRSSSNSSSPKKTISRVSSTSSNQTSHDGILQSPKKVIRALYDYEPQGPGELKFFKGDFFHVLDDVDDELHKEAEANGWIEATNPMTQLKGMVPISYFEIFDRSRPTVTASSNSFTNSIDIQHQHQHQQGIHNGTGNRNLNQTLYAVTLYEFKAERDDELDIMPNENLIICAHHDYEWFIAKPINRLGGPGLVPVSYVKIIDLLNPNSHYTSIDTSRRSQVIQVINGFNIPTVEQWKNQTAKYQASTIPLGSISGSGTPPTSANSQYFDNHTMTSNRSSSGSSISIVEASVD | binds | – | – |
| GST-Rsr1^K16N (GDP-locked form of Rsr1) (natural protein, Rsr1, Ras-family GTPase of Candida albicans; GDP-locked mutant K16N; Made with the pGEX vector system (Amersham Biosciences), which normally places GST at the N-terminus; also called Rsr1-GDP; recombinant Rsr1^K16N) MRDYKVVVLGAGGVGNSSITVQFVQGVYVESYDPTIEDSYRKQIEVDGRACDLEILDTAGVAQFTAMRELYIKSGKGFLLVYSVTDENSLKELLALREQVLRIKDSDNVPMVLVGNKCDLEDDRVLSIEDGVKVSQDWGLVPFYETSAMYKTNVDEAFIDVVRQIMRKEAAISAEKKQQKELQKQQQQQQQEQDAEGQQQQQKSGKSKSSATQKDATADGQTDVNARLKQSINDHPKSSSGSKFCTII | – | binds | binds |
